Reference: publication doi:10.1101/2024.07.05.601840v1

What was measured:
Assay in all cases: purified protein
[1] = substrate: CC(=O)CC(=O)SCCNC(=O)CCNC(=O)[C@H](O)C(C)(C)COP(=O)(O)OP(=O)(O)OC[C@H]1O[C@@H](n2cnc3c(N)ncnc32)[C@H](O)[C@@H]1OP(=O)(O)O; type: biochemical, Sulfolobus acidocaldarius; details: thiolytic cleavage, 0.2 mM CoA, 20 mM MgCl2, pH 8, 23°C
[2] = substrate: CC(C)(COP(=O)(O)OP(=O)(O)OC[C@H]1O[C@@H](n2cnc3c(N)ncnc32)[C@H](O)[C@@H]1OP(=O)(O)O)[C@@H](O)C(=O)NCCC(=O)NCCS; type: biochemical, Sulfolobus acidocaldarius; details: thiolytic cleavage, 0.1 mM AcAcCoA, 20 mM MgCl2, pH 8, 23°C
[3] = substrate: C/C=C/C(=O)SCCNC(=O)CCNC(=O)[C@H](O)C(C)(C)COP(=O)(O)OP(=O)(O)OC[C@H]1O[C@@H](n2cnc3c(N)ncnc32)[C@H](O)[C@@H]1OP(=O)(O)O
[4] = substrate: CC(=O)CC(=O)SCCNC(=O)CCNC(=O)[C@H](O)C(C)(C)COP(=O)(O)OP(=O)(O)OC[C@H]1O[C@@H](n2cnc3c(N)ncnc32)[C@H](O)[C@@H]1OP(=O)(O)O; details: 0.2 mM NADH, pH 7 TRIS-HCl, 35°C
[5] = substrate: C[C@H](O)CC(=O)SCCNC(=O)CCNC(=O)[C@H](O)C(C)(C)COP(=O)(O)OP(=O)(O)OC[C@H]1O[C@@H](n2cnc3c(N)ncnc32)[C@H](O)[C@@H]1OP(=O)(O)O; details: oxidative direction with NAD+
[6] = substrate: NC(=O)C1=CN([C@@H]2O[C@H](COP(=O)(O)OP(=O)(O)OC[C@H]3O[C@@H](n4cnc5c(N)ncnc54)[C@H](O)[C@@H]3O)[C@@H](O)[C@H]2O)C=CC1
[7] = substrate: NC(=O)c1ccc[n+]([C@@H]2O[C@H](COP(=O)(O)OP(=O)(O)OC[C@H]3O[C@@H](n4cnc5c(N)ncnc54)[C@H](O)[C@@H]3O)[C@@H](O)[C@H]2O)c1; details: 0.4 mM crotonyl-CoA, pH 7 TRIS-HCl, 75°C, varied: cofactor
[8] = substrate: CCCCCCCC(=O)SCCNC(=O)CCNC(=O)[C@H](O)C(C)(C)COP(=O)(O)OP(=O)(O)OC[C@H]1O[C@@H](n2cnc3c(N)ncnc32)[C@H](O)[C@@H]1OP(=O)(O)O; details: 1 mM FcPF6, pH 6.5 HEPES-KOH, 20 mM KCl, 65°C
[9] = substrate: C[C@@H](O)CC(=O)SCCNC(=O)CCNC(=O)[C@H](O)C(C)(C)COP(=O)(O)OP(=O)(O)OC[C@H]1O[C@@H](n2cnc3c(N)ncnc32)[C@H](O)[C@@H]1OP(=O)(O)O; details: dehydration, pH 6.5 MES-KOH, 20 mM KCl, 65°C
[10] = 0.2 mM NAD+, pH 7 TRIS-HCl, 75°C
[11] = 0.6 mM AcAcCoA, pH 7 TRIS-HCl, 35°C, varied: cofactor
[12] = 0.2 mM INT, pH 7.5 HEPES-NaOH, 100 mM NaCl
[13] = hydration, pH 6.5 MES-KOH, 20 mM KCl, 65°C
[14] = 0.3 mM NADPH, pH 7.5 HEPES-NaOH, 10 mM KCl, 70°C

B1: KT/DUF35 (Saci_1121/1120 complex) (Sulfolobus acidocaldarius DSM 639) (protein)
chain: MRNVAIVGTGHSKFGVRNDVSMQELAWEAVKQALEEANLEQKDIQYFVVGNVGMWSAEELPAVVVGEYCDLTPKGTMRVEAACATGSAAIRDAYQAIKAGEIDVALVVGVEQMSQSPNPQVIELIGRAGNYFWEFENFGLTFPGYYALYASAYMAKYGMKEEDLGSVAVKNHYYGARNPYAQFQKEITMEEYLKSKPVAQPLKLLDSSPITDGAAALILASEEVARKITDSPVWIVSQGVASGTANLSRRTDFTGIEASYVAAKEAYKRAKIDFSDAWRYFDVADVHDCFTIAEIMAYEDLGFAKRGEGHLMARNGETYIGGKIPVNVDGGLKAKGHPIGATGVSMAVSITRQLLYRAHKGTQADIRNGMGITHNVGGTGHYAYITIYSTRRPSS
[1]
  Km: 65 ± 18.7 µM
  kcat: 4.024 s⁻¹
[2]
  Km: 20 ± 4.1 µM
  kcat: 3.467 s⁻¹

B2: HCDH/ECH (Saci_1109) (Sulfolobus acidocaldarius DSM 639) (protein)
chain: MKVEDIKKILVIGAGTMGHGIAELAAIAGYQVYLSDVSQDILNSAMDKVKWSLTKLKERGTIKEDVETVLQRIRPVVGLDKTVSDADFSIEAITEKIDVKRQTFAKLDELLPPHAILATNTSSLPVSKIAEATKRPDKVVGMHYFNPPALMPLVEVMKGDKTSDETAKVTYELAKKLGKQPIMINKDIPGYVVNRILGGINIASCIVVEKKLADIKEVDAVARYKLGFPMGVFELLDYTGIDVAYYISKSREELGVKDDIPICSLIVEKFKNNELGVKSGKGFYTYPGPGKYVKPELPKELAEKLNPALIIAPAVNEAARLVRENIASKEDVDLGTVLGLGFQKGILKLADEVGIDNIVNSLSELKKLTGISSFDPDPLLTEMVSQGKVGMKSGSGFFEYGKIQQKTLKTLILRVEPPLAWIVLNRPERLNALSQELMGELDKVLDELEFNNDVRVVIITGNGRAFSAGADVTSFTTLRPIDVVRYRYMKNVIYKIQLYTKPVIAAINGFALGGGLELAMACDIRIASNLAQLGQPEINIGIIPGAGGTQRLPRLIGKGRAKLLIYTGDMIPAEEAYKMGLVDQVVPANKFEEEVRRVALKIAEKSPLSLLAAKLAVELGYEANIWTGQELESALFGLLFTTEDVKEGVRAFLERRKPQFKGE
[3]; [10]
  Km: 24 ± 4 µM
  kcat: 20.56 s⁻¹
[4]
  Km: 76 ± 8 µM
[5]
  Km: 43 ± 2 µM
  kcat: 58.672 s⁻¹
[6]; [11]
  Km: 28 ± 7 µM
  kcat: 8.441 s⁻¹
[7]
  Km: 36 ± 9 µM

B3: ACAD (Saci_1123) (Sulfolobus acidocaldarius DSM 639) (protein)
chain: MVLPFKTMEAFNVEISEKHELFRRAVREFMERDVAPYVEKGEKEGQIPKEVLEKAKELGLYGVSVPEEYGGQGGDSLMTVIAQEEMARVWAALSTRVAVGGLFMTPILLFGSEEQRKKYVTPVAKGDKVAAFANTEPQAGSDVAGMQSTAKKVNGKYILNARKIFITNGGIADYYVVTARTSPPEPNARWKGISMFVVEREWKGVKVLNRIETMGLKASNTAELAFEDVEVPAENLVGEEGMGFKYAMSTFDASRVGVAGQALGVAQAALEKMTNYSVQRSAFGSPLLGFQMVQEKIAETLTEVNAARLVTYWAATLYNKGMTNEAIIASSMAKYFATEVAERAAIRAITVHGGYGVATSTGVERLLRDVEIMKIYEGANDIQKLVILKETARRLFGIKM
[8]
  Km: 15.1 ± 4 µM
  kcat: 21.234 s⁻¹

B4: KT (Saci_1114) (Sulfolobus acidocaldarius DSM 639) (protein)
chain: MLQEVYLVDFARTPFTRFTRKEPQKDPFYNLRPEELAGIVINRLIEKNGINPREIEEIVTGCALQVGEQWSFGGRHEVFASRLPYTIPSMAVDRQCASSITTVAIGAMEVATGMADIVLAGGVEKMSKTPMFDNPHIEPNMAFLTDPKYAEYDLTTGYVMGLTAERLAEEAKISREEMDRWSLRSHQMATKAIQEGYFKDEIIPFETEVEGKKITLTTDQSVRPDTSLEKLSQLPPAFRPNGTITAGNSAPLNSGSAYVLLMSKNALKRYGLTPMAKIRSFGFAGVPPAVMGKGPVPSSKKALEKANLNVKDISLWEINEAFAVVVLNAIKELGLDESTVNKRGGAIAIGHPLGATGARIVGTLARQLLIEGKDYGVATLCVGGGQGGAIVVERV
[1]
  Km: 33 ± 10 µM
  kcat: 1.2 s⁻¹
[2]
  Km: 3.38 µM
  kcat: 1.8 s⁻¹

B5: ETF (Saci_0315) (Sulfolobus acidocaldarius DSM 639) (protein)
chain: MAELKIVVSIKQVPDADDLRIDPVTNNLVREGVPAVINPPDYHAIEEAIRLKERFGGKTMVLTMGPGQAEVALREALAMGIDEAYLISDRAMAGADTWATSYTVAKAVQRLGGADIILFGRRAVDGETEQVGPQTGKWLGIPVVAYVREIRSIENGKAVVVRTTEFEEEVIEVPLPAVFTILETANKPRQPDILSLIKAKTAKVTVWNKDDIKAEPTKIGLAGSPTKVIKVSPPPKTRKPEIIDGKKDPEKAAEWFLNKIYESLKEAESSLKEYVKPKAKVKVNSEIWVYIDHIGDRINKASLEILSEARRIADLMDTSVAGVVIGGESVKGIINEVYEYGADKVYFAETKGYDRYDNEVYTKALAKLAKKYKPEGIFFPGTRAARELASTSAIEIDTGLIADCTNFDVDDKGVLLATRPDFGGKEMSTIVCPRHRPVMVTTRAGVFMPLPRMPGRTGELIKEEIEDLYSRLKVLEYKNIEKRNILTEADIVVGVGRGIKSPENIKKFEEFATALGGVLGVSKPLADMGWYPKDRQIGQTGTTIRPKVYIALGVSGAVQHLVGILSSRKIGAINLDQSAPIFDNCDFGVVGDIFEIVPKMMELIKKKGE
[6]; [12]
  Km: 39 ± 12 µM
  kcat: 0.784 s⁻¹

B6: MaoC-HCD (Saci_1085) (Sulfolobus acidocaldarius DSM 639) (protein)
chain: MSEQGPFFEDFKVGQRFRSKVGRSLTDVDNIWFTLLTNNSNQIHFNRDYTEKYFSGEPFKGRLVVNGFLTLAIVAGLLVELTSQNGFMLGIENVKFMNPVFAGDTIYGEAEVIEARESKSRPGFGIVKIRTWGYNQRGEKIVEFDRVFMVRKRNSVWSGEKSTDKPQ
[3]; [13]
  Km: 222 ± 64 µM
  kcat: 1.404 s⁻¹
[9]
  Km: 399 ± 127 µM
  kcat: 0.549 s⁻¹

B7: ECR (Saci_1115) (Sulfolobus acidocaldarius DSM 639) (protein)
chain: MKAVILPGFKQGYKIDKNVQEPKAGKSEVVVKLRKAALCYRDLLQIQGFYPRSKYPLILGHEMVGEIEEVGEGVEGFKKGDIVTSLLYVPDWTCDNCKMGEEIYCNNRQLYAQELDGFFAERILVKANSLVKVPPGVSDEGAVVVPCVAAMIYRGLKRANVKQGDIVLVTGAGGGVGIHALQVAKALGAKVVGVTSEESKAKIVGKFSDYVVVGNKFAEEVRKGFGEPSIVVDNVGGPTLDESMRSLKIGGKIVQVGNIDPSVNFSLRLGYLVLKNVELIGHAGATKKDIVDTLEMVRQNKITPVIGGEVSIEDFDKALDMLKDRKRHGKILIKP
[3]; [14]
  Km: 96 ± 18 µM
  kcat: 0.256 s⁻¹
